From US20150247163

Assays:
[1] = molecular target: T1, PBS1^RCS2-HA (PBS1 in which the AvrPphB cleavage site GDKSHVS is replaced with the RIN4 cleavage site 2 VPKFGDW, fused to a C-terminal 3xHA epitope)
T1 chain: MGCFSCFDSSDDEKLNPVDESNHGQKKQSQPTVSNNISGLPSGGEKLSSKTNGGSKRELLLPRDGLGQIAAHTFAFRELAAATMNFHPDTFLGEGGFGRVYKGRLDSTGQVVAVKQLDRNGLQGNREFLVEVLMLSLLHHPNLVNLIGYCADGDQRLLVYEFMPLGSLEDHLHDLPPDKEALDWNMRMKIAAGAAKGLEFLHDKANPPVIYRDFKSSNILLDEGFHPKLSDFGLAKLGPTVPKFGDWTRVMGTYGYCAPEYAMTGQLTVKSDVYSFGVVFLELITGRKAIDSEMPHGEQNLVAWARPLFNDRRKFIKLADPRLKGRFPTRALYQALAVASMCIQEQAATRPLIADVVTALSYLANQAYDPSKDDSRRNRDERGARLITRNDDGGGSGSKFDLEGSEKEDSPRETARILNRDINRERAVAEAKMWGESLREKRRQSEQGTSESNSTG

[2] = molecular target: T2, PBS1^TCS-HA (PBS1 in which the seven amino acids flanking the AvrPphB cleavage site are replaced with a TEV cleavage site, fused to 3xHA)
T2 chain: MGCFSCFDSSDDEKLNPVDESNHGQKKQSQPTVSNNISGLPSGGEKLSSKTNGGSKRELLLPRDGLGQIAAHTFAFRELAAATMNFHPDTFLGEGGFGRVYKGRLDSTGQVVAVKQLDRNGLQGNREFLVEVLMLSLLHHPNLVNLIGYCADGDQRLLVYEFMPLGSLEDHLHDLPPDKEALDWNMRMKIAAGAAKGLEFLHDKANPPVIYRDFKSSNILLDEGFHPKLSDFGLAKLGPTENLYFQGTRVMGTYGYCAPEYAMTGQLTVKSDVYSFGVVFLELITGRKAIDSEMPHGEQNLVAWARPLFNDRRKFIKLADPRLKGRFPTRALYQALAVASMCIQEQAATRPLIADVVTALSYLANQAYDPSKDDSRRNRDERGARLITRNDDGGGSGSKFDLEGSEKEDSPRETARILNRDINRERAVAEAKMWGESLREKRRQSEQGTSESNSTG

[3] = molecular target: T3, wild-type PBS1 (AvrPphB susceptible 1), Q9FE20
T3 chain: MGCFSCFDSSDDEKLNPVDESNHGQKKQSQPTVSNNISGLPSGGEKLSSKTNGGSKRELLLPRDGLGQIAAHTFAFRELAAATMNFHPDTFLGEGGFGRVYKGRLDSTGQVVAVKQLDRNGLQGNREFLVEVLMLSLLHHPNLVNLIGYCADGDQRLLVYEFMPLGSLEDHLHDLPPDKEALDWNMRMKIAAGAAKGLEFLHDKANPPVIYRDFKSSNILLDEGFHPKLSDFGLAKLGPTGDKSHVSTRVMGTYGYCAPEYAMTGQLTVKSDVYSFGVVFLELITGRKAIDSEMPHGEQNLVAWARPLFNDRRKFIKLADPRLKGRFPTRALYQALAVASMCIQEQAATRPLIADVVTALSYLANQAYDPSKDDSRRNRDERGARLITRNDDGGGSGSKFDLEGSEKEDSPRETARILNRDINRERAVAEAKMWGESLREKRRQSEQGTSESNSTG

B1: AvrRpt2 (Example 1 pTA7002 construct; also as delivered by P. syringae DC3000(avrRpt2)) (protein)
chain: MKIAPVAINHSPLSREVPSHAAPTQAKQTNLQSEAGDLDARKSSASSPETRALLATKTVLGRHKIEVPAFGGWFKKKSSKHETGGSSANADSSSVASDSTEKPLFRLTHVPYVSQGNERMGCWYACARMVGHSVEAGPRLGLPELYEGREGPAGLQDFSDVERFIHNEGLTRVDLPDNERFTHEELGALLYKHGPIIFGWKTPNDSWHMSVLTGVDKETSSITFHDPRQGPDLAMPLDYFNQRLAWQVPHAMLYR
[1]
  cleavage product by anti-HA immunoprecipitation and immunoblot, transgenic Arabidopsis line #5, 12 hours after inoculation: a cleavage product of PBS1^RCS2 was detected in transgenic line #5 twelve hours after inoculation with DC3000(avrRpt2), but not with DC3000 lacking avrRpt2

B2: AvrRpt2 fused to 5xMyc (Example 5 construct) (protein)
chain: MKIAPVAINHSPLSREVPSHAAPTQAKQTNLQSEAGDLDARKSSASSPETRALLATKTVLGRHKIEVPAFGGWFKKKSSKHETGGSSANADSSSVASDSTEKPLFRLTHVPYVSQGNERMGCWYACARMVGHSVEAGPRLGLPELYEGREGPAGLQDFSDVERFIHNEGLTRVDLPDNERFTHEELGALLYKHGPIIFGWKTPNDSWHMSVLTGVDKETSSITFHDPRQGPDLAMPLDYFNQRLAWQVPHAMLYR
[1]
  cleavage by immunoblot, 6 hours post-induction: AvrRpt2 cleaved PBS1^RCS2 at 6 hours post-induction
  cleavage by immunoblot, 24 hours post-induction: At 24 hours post-induction, AvrRpt2-induced cleavage was increased

B3: C122A (protease-deficient mutant form of AvrRpt2) fused to 5xMyc (protein)
chain: MKIAPVAINHSPLSREVPSHAAPTQAKQTNLQSEAGDLDARKSSASSPETRALLATKTVLGRHKIEVPAFGGWFKKKSSKHETGGSSANADSSSVASDSTEKPLFRLTHVPYVSQGNERMGAWYACARMVGHSVEAGPRLGLPELYEGREGPAGLQDFSDVERFIHNEGLTRVDLPDNERFTHEELGALLYKHGPIIFGWKTPNDSWHMSVLTGVDKETSSITFHDPRQGPDLAMPLDYFNQRLAWQVPHAMLYR
[1]
  cleavage by immunoblot, 24 hours post-induction: even C122A induced small amounts of cleavage

B4: TEV protease (NIa protease of Tobacco Etch Virus) fused to 5xMyc (protein)
chain: GESLFKGPRDYNPISSTICHLTNESDGHTTSLYGIGFGPFIITNKHLFRRNNGTLLVQSLHGVFKVKNTTTLQQHLIDGRDMIIIRMPKDFPPFPQKLKFREPQREERICLVTTNFQTKSMSSMVSDTSCTFPSSDGIFWKHWIQTKDGQCGSPLVSTRDGFIVGIHSASNFTNTNNYFTSVPKNFMELLTNQEAQQWVSGWRLNADSVLWGGHKVFMSKPEEPFQPVKEATQLMNELVYSQ
[2]
  cleavage by immunoblot, 6 hours post induction: TEV protease cleaved PBS1^TCS 6 hours post induction
[3]
  cleavage by immunoblot: TEV protease did not cleave wild-type PBS1
